Results: the nanobody polyreactivity screen of Harvey et al. (2022)

Test: yeast display, Sf9 membrane polyspecificity reagent, FACS + sequencing; frameworks hold sequencing errors
How it was run: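 Galactose-induced (36–48 hours) yeast carrying a synthetic nanobody display library were exposed to 10% biotinylated, detergent-solubilized Sf9 membrane reagent at 4 °C for 1 hour. FACS followed streptavidin microbead enrichment, using low and high (top ~1%) gates for expression (anti-HA) and reagent binding (streptavidin). Colony PCR, MiSeq 2 × 250 sequencing and CDR-length filtering followed. Labels for polyreactivity reflect the gate of origin.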

Sequence	polyreactivity (PSR sort gate)
QVQLVESGAGLVLPGGSLRLSCAASGNTTSTNAMGWYRQAPGKERVAALTWSTGSTYYEDSVKVRFTISRDNAKNTVYLQMNSLKQDETAVYYCAKQTYVSEYGLATAAWGFDYWGQGTQVTVSS	low polyreactivity
QVQLVESGAGLVQAAGSLSLSCASAGSTFFLYAMGRYRRAHGKVREFVAAISDTGGSTYYADSVKGRFTISRDNATNTVYLQMISLKPEDTACYYCNRVVASFYRSRYDYWGQGTQVTVSS	low polyreactivity
QVQLVESGAGLVQAGGILRLSCAASGRIIAYYAMGWYRQAPGKERELVAAINWSGGRTYYADSVKGRFTISRDNAKNTVYLQMNSLKPEDTAVYYCAARVSYGYDYWGQGTQVTVSS	high polyreactivity
QVQLVESGAGLVQAGGILRLSCAASGSTFIYNAMGWYIQAPGKERELVAAISARTGNTYYADSVKGRFTISRDNAKNTVYLQMNSLKPEDTAVYYCARRGFRRGGGPSRYYWYDYWGQGTQVTVSS	high polyreactivity
QVQLVESGAGLVQAGGRLRLSCAASGIIFYNYAMGWYRQAPGKERQFVAAISWSGGSTNYADSVKGRFTISRDNAKNTVYLQMNSLKPEDTAVYYCAAEYSGNNYNSDYWGQGTQVTVSS	low polyreactivity
QVQLVESGAGLVQAGGSLGLSCAASGFTFRTYAMGWYRQAPGKERELVADISGSGGSTYYADSVKGRFTISRYNAKNTVYLQMISLKPEDTAVYYCAGTIYNWGYERDYWGQGTQVTVSS	high polyreactivity
QVQLVESGAGLVQAGGSLRLRCAASGYTLGPYAMGWYRPAPGKERELVAAISWGGGRTYYADSVKGRFTISRDNAKNTVYLQMNSLKPEDTAVYDCAAKWSHVRDGPKYDYWGQGTQVTVSS	low polyreactivity
QVQLVESGAGLVQAGGSLRLSCAASGFIFRYYAMGWYRQAPGKERELVARITPRGGRTYYADSVKGRFTISRDNAKNTVYLQMNSLKPEDTAVYYFAAVYPVLHEFGYWGQGTQVTVSS	high polyreactivity
QVQLVESGAGLVQAGGSLRLSCAASGFIYEWYTMGWYTQAPGKERELVARISTDGSTTYADSVKGRFTISRDHAKKTVYLQMNSLKPEDTSVYYCAADVTYPGLKYIFDYWGQGTQVTVSS	low polyreactivity
QVQLVESGAGLVQAGGSLRLSCAASGGTFESYAMGWYRQAPGTERELVAAISGRGGRTYYADSVKGRFTISRDNAKNTVYLQMNSLKPEDTAVYYCRYWYYRTYYYWGQGTQVTVSS	high polyreactivity
QVQLVESGAGLVQAGGSLRLSCAASGITFYTYAMGWYRQAPGKERELVAAITSRTGSTYYADSVKGRFTISRDNAKNTVYLQMNSLKPEDTAVYYCAADRTRGRDGSDYWGQGTQVTVSS	low polyreactivity
QVQLVESGAGLVQAGGSLRLSCAASGLIFGTDAMGLYRQAPGKESELVAAITSGGRTYYADSVKGRFTISRDNAKNTVYLQLISLKPEDTAVYYCAAEGWWNDTPYDYWGQVTQVTVSS	low polyreactivity
QVQLVESGAGLVQAGGSLRLSCAASGLILGVYTMGWYRQAPGTEREFVASINYGGGSTYYADSVKGRFTISRDNAKNTVYLQMNSLKPEDTAVYYCNARSRWGGTRLYSYDYWGQGTKVTVSS	low polyreactivity
QVQLVESGAGLVQAGGSLRLSCAASGLTFEWYAMGWYRPAPGKERELVAAISWNGGSTYYADSVKGRFTISRDNAKNTVYLQMNSLKPEDTAVYYCATSSPRRYYWGQGTQVTVSS	high polyreactivity
QVQLVESGAGLVQAGGSLRLSCAASGLTFVFYAMGWYRQAPGKERELVAAISSSGGSTNYADSVKGRFTISRDNAKNTVYLQMNSLKPEDTAVYYCAAETVSWYRYYYRGQGTQVTVSS	high polyreactivity
QVQLVESGAGLVQAGGSLRLSCAASGLTIYVNAMGWYGQAPGKERELVATISGSGSTNYADSEKGRFTISRDDAKNTVYLQMNSLKPEDTAVYYCNAGWAQDPSNYWGQGTQVNVSS	low polyreactivity
QVQLVESGAGLVQAGGSLRLSCAASGRIFGYYAMGWYRQAPGQERELVATIRGGGSTNYADSVKGRFTISRDNAKNTVYLQMNSLKPEDTAVYVCAKPGAKWRGFDYWGQGTQVTLSS	low polyreactivity
QVQLVESGAGLVQAGGSLRLSCAASGRIFPDNTMGWYRQAHGKERELVAVITYSGGSTYYADSVKGRFTISRDNAKNTVYLQMNSLKPEDTAVYYCAADFGFQLKMYYWGQGTQVTVSS	low polyreactivity
QVQLVESGAGLVQAGGSLRLSCAASGRIFTFNTMGWYRQAPGKERELVAAITSSSARTYYADSVKGRFTISRYNAKNTVYLQMNSLKPEDTAVYYCATRDWVGSVRMGYWGQGTQVTVSS	high polyreactivity
QVQLVESGAGLVQAGGSLRLSCAASGRILHEYAMGWYRQAPGKERELVAAITFSGTSTYYADSVKGRFTISRDNAKNSVYLQMNSLKPEDTAVYYCAADTYGGSRDYWGQGTQVTVSS	low polyreactivity
QVQLVESGAGLVQAGGSLRLSCAASGRTFIGNAMGWYRQAPGKERELVAAISSSGGNTYYADSVKGRFTISRDNAKNTVYLQMNSLKPEDTAVYYCAVEVRTFVTYGRREYYWGQGTQVTVSS	high polyreactivity
QVQLVESGAGLVQAGGSLRLSCAASGRTFINNVMGWYRQAPGKERELVAAINSGSSTKYADSVKRRFTISRDNAKNTVYLQMNSLKPEDTAVYYCAAELWYFSEIGRMDYWGQGTIVTVSS	high polyreactivity
QVQLVESGAGLVQAGGSLRLSCAASGRTFPYYVMGWYRQAPGKERELVAAIRRTGGSTYYADSVKGRFTISRDNAKNTVYLQMNSLKPEDTAVYYCTQRHSILYEGGYDYWGQGTQVTVSS	low polyreactivity
QVQLVESGAGLVQAGGSLRLSCAASGRTFSGYAMGWYRQAPGKERELVASITWSGGSTYYADSVKGRFTISRDNAKNTVYLQMNSLKPDDTAVYYCARDSPRGRVGFNYWGQGTQVTVSS	low polyreactivity
QVQLVESGAGLVQAGGSLRLSCAASGRTFYWYVMGWYRQAPGKERELVAAITQTGSSTYYADSVKGRFTISRDYAKNTVYLQMNSLKPEDTAVYYWAAEASSVPGYDYWGQGTQVTVSS	low polyreactivity
QVQLVESGAGLVQAGGSLRLSCAASGSAFYVYARGWYTQAPGKERELVAAIRGGGSTNYADSVKGRFTISRDNAKNTFYLQMNSLKPEDTAVYDCAARYRSPRYRPSGYSYNYWGQGTQVTVSS	high polyreactivity
QVQLVESGAGLVQAGGSLRLSCAASGSIFDHYAMGWYRQAPGKERELVAAISSSGGSTYYADSVKGRFTISRDNAKNTVYLQMNSLKPEDTAVYSCAARAGYTRYGYWGQGTQVTVSS	high polyreactivity
QVQLVESGAGLVQAGGSLRLSCAASGSIFPRYAMGWYRQAPWTERELVAAITNGGSTDYADSVKGRFTISRDNAKNTVYLQMNSLKPEDTAVYYCAADLAVGIYPEDGEYWGQGTQVTVSS	low polyreactivity
QVQLVESGAGLVQAGGSLRLSCAASGSIFTENSMGWYRQAPGKEREMVAAIRWDDGHTYYADSVKGRFTISRDNAKNTVYLQMNSLKPEDTAVYYCNADKWSSTDDWLYDYWGQGTQVTVSS	low polyreactivity
QVQLVESGAGLVQAGGSLRLSCAASGSTFYRYVMGWYRQAPGKERELVAAISGSGVRTYYADSVKGRFTISRDNAKNTVYLQMHSLKPEATAVYYCAASVRSRSQTYLRYDYWGQGTQVTVSS	high polyreactivity
